Laboratory results: patent publication US20020102260A1

Target: VEGFR-2
Experiment: cell-based or functional assay

activity towards the VEGFR-2 bioassay: 10 fold
Substance: VEGF-DΔN (from UniProt O43915 93-354) (ligand)
